Source: publication PMC11550248

Target: voltage-dependent anion-selective channel 1 (VDAC1), purified from rat liver mitochondria (rat) (UniProt Q9Z2L0)
Assay: MST; VDAC1 (138 nM) or MAVS (105 nM) fluorescently labeled and kept constant, tested protein at different concentrations; 20mM Tris-HCl, 200mM NaCl, pH 8; 30 min at 37°C in the dark; Monolith NT.115, LED 20%, IR laser 80%

Q: How did the C50 (half maximal binding) turn out when “SARS-CoV-2 small envelope E-protein, purified (from UniProt P0DTC4 1-75) (natural protein)” was run?
A: Its C50 (half maximal binding) is 1100 nM.
